Common to all, as to test: homogeneous cell binding assay on transfected HEK293-6e cells as in Example 8 (data not shown)
One assay concerns the target T1, Human HER2 (human, UniProt P04626 23-1255).
T1 construct: whole, on cells
As to the method: (§1) Binding of constructs to target was assessed in HEK293-6e cells transiently expressing the target of interest.
(§2) Parental cells were maintained in 250 mL Erlenmeyer flasks (Corning, 431144) at 37° C., 5% CO2 in a rotating humidified incubator at 115 rpm. HEK293-6e cells were re-suspended to 1×10⁶ cells/mL in fresh Freestyle media before transfection. […] The DNA vectors that were used to express targets of interest were pTT5 vectors with full length targets of interest including Human Dectin-1, Human DEC205, Human CD40, Human HER2, Human ROR1 and mock vector containing GFP. The cells were incubated for 24 hours at 37° C. and 5% CO2 in a rotating humidified incubator at 115 rpm.
(§3) Construct samples were prepared at starting concentrations of 40 nM final in FACS buffer or 1×PBS pH 7.4 (Gibco, 1001023)+2% FBS in Eppendorf tubes. Samples were titrated in duplicate 1:4 down to 0.04 nM directly in the 384-well black optical bottom assay plate (Thermo Fisher, 142761). HEK293-6e cells expressing target of interest were harvested and re-suspended in FACS buffer at 10,000 cells per 30 μl. To visualize cell nuclei as a focusing channel, Vybrant™ DyeCycle™ Violet nuclear stain (Life Tech, V35003) was added to cells at 2 μM final concentration. To detect binding of test construct sample to cells, Goat anti-Human IgG Fc A647 (Jackson ImmunoResearch, 115-605-071) was added to cells at 0.6 μg/mL final. The cells were vortexed briefly to mix and plated at 10,000 cells/well. The plate was incubated at room temperature for 3 hours before scanning. Data analysis was performed on the CellInsight™ with the HCS high content screening platform (Thermo Scientific), using BioApplication “CellViability” with a 10× objective. Samples were scanned on the 385 nm channel to visualize nuclear staining and channel 650 nm to assess cell binding. The mean object average fluorescence intensity of A647 was measured on channel 2 to determine binding intensity on all cell conditions.

Another assay has as its target T2, Human CD40 (human, UniProt P25942 21-277).
T2 construct: whole, on cells
As to the method: as §1, §2, §3

The next assay concerns the target T3, Human DEC205 (human, UniProt O60449 28-1722).
T3 construct: whole, on cells
The protocol:
as §1, §2, §3

Two molecules from US20200048371A1 (Zymeworks, published 2020) can be followed below.

T2 sequence (P25942 21-277): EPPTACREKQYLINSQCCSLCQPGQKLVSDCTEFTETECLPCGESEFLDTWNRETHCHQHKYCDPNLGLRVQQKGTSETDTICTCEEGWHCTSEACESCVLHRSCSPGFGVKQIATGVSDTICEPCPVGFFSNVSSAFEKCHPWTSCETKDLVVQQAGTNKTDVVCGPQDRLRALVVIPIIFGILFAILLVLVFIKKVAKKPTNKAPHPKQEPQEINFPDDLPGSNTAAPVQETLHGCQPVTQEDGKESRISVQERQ
T3 sequence (O60449 28-1722): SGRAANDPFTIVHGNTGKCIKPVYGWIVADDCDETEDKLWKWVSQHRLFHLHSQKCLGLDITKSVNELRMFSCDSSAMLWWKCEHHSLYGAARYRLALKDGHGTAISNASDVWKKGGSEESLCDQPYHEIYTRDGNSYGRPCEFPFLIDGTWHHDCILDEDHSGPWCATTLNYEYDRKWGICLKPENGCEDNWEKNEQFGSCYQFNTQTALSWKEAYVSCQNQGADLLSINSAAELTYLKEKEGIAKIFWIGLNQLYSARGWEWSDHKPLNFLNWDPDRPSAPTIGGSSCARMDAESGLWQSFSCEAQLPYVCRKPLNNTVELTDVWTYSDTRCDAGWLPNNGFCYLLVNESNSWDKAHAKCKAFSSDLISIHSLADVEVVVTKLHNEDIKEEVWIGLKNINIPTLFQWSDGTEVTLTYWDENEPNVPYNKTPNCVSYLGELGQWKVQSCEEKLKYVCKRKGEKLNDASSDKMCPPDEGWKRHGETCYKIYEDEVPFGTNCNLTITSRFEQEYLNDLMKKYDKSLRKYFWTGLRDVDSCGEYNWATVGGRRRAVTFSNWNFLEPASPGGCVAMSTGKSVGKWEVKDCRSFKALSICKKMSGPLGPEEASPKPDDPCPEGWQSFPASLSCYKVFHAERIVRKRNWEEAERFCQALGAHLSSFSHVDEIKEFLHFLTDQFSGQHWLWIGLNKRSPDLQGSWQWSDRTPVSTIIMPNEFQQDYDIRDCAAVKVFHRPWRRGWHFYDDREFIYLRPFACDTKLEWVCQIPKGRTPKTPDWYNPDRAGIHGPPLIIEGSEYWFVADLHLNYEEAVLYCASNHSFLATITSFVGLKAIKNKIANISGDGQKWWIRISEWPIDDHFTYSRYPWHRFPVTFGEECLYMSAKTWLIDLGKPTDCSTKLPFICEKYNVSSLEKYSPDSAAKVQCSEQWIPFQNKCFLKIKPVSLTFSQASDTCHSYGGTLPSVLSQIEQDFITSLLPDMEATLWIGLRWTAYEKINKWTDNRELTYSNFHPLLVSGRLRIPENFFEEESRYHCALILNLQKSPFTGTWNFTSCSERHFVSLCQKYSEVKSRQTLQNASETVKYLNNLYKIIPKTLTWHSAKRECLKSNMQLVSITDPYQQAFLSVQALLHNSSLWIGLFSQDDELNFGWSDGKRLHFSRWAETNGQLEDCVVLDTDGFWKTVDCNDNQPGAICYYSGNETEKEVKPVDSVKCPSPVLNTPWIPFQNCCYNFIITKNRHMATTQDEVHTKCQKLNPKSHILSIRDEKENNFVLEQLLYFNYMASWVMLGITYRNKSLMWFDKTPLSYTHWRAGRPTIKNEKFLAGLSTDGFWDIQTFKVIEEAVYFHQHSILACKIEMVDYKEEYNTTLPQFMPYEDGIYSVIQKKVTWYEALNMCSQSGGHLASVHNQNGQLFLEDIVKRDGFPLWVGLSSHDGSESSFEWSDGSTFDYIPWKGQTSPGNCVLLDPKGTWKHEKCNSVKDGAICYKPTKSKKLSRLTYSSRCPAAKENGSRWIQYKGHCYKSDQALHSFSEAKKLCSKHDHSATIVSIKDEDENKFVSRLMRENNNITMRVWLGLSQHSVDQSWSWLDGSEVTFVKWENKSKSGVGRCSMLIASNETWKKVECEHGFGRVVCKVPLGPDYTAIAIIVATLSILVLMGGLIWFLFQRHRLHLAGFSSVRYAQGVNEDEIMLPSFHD

B1: construct 18532 (CD40 X HER2; 12E12, Pertuzumab; Fab x scFv) (bispecific antibody, human IgG1, kappa, L234A L235A)
heavy: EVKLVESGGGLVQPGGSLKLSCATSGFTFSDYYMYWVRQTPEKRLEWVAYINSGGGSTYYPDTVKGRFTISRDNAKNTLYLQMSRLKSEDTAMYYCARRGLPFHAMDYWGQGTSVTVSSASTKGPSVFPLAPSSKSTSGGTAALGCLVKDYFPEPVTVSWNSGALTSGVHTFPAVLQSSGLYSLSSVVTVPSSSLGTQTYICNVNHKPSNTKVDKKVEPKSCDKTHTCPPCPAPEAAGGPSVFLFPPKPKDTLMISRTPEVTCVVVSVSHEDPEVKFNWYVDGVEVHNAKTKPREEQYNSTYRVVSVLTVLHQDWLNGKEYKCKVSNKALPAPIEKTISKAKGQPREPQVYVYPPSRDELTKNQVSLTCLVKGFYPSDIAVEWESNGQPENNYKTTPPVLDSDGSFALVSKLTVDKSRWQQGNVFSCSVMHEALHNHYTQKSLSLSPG
light: DIQMTQTTSSLSASLGDRVTISCSASQGISNYLNWYQQKPDGTVKLLIYYTSILHSGVPSRFSGSGSGTDYSLTIGNLEPEDIATYYCQQFNKLPPTFGGGTKLEIKRTVAAPSVFIFPPSDEQLKSGTASVVCLLNNFYPREAKVQWKVDNALQSGNSQESVTEQDSKDSTYSLSSTLTLSKADYEKHKVYACEVTHQGLSSPVTKSFNRGEC
scFv: DIQMTQSPSSLSASVGDRVTITCKASQDVSIGVAWYQQKPGKAPKLLIYSASYRYTGVPSRFSGSGSGTDFTLTISSLQPEDFATYYCQQYYIYPATFGQGTKVEIKVEGGSGGSGGSGGSGGVDEVQLVESGGGLVQPGGSLRLSCAASGFTFADYTMDWVRQAPGKGLEWVGDVNPNSGGSIYNQRFKGRFTFSVDRSKNTLYLQMNSLRAEDTAVYYCARNLGPSFYFDYWGQGTLVTVSSAAEPKSSDKTHTCPPCPAPEAAGGPSVFLFPPKPKDTLMISRTPEVTCVVVSVSHEDPEVKFNWYVDGVEVHNAKTKPREEQYNSTYRVVSVLTVLHQDWLNGKEYKCKVSNKALPAPIEKTISKAKGQPREPQVYVLPPSRDELTKNQVSLLCLVKGFYPSDIAVEWESNGQPENNYLTWPPVLDSDGSFFLYSKLTVDKSRWQQGNVFSCSVMHEALHNHYTQKSLSLSPG
notes: also called v18532; Her2×CD40
For B1, the binding result with Human HER2 and with Human CD40 was “binds” in each case.

B2: construct 18529 (DEC-205 X HER2; 3G9, Pertuzumab; Fab x scFv) (bispecific antibody, human IgG1, kappa, L234A L235A)
heavy: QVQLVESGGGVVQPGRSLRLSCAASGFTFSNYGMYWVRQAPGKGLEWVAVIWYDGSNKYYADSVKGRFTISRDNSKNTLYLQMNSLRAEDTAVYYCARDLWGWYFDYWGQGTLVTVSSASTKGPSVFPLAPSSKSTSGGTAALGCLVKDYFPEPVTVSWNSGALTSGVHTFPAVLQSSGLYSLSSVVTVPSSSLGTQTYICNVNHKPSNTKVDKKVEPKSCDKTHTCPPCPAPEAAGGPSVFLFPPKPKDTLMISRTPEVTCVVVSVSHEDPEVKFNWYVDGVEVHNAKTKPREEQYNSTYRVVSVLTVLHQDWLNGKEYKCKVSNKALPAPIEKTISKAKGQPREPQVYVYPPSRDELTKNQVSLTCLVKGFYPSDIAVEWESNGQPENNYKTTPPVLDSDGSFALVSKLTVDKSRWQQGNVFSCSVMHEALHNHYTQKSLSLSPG
light: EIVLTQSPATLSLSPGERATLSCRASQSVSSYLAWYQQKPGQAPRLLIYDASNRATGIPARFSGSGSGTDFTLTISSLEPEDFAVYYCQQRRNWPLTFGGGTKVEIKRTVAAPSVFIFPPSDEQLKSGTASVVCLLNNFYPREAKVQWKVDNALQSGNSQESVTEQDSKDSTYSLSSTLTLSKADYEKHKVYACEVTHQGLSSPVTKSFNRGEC
scFv: B1 scFv
notes: Three polypeptides A, B and C; also called Her2×Dec205
Take B2: the binding result with Human HER2 and with Human DEC205 was “binds” each time.
